Source: patent US20190359666A1
pKd: −log10 of the molar value.

Assays:
nrgECD = nrgECD (UniProt Q02297); assay: Biacore SPR, immobilised nrgECD
nrgEGF = nrgEGF (UniProt Q02297); assay: Biacore SPR
nrgbx = nrgbx (UniProt Q02297); assay: cell-based or functional assay
Sequence of nrgbx (Q02297 other isoform, or with tags, fused parts or gaps limits assumed): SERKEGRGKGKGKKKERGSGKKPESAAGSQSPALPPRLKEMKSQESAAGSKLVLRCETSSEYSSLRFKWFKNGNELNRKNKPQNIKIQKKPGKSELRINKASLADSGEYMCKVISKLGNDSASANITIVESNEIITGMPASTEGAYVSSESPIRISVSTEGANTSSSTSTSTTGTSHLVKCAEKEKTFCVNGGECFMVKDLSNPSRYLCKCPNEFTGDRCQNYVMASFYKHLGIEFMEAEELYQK

Sequence of IGFBP3-Fc-VEGF-ErbB4 (Fc fusion) (chain): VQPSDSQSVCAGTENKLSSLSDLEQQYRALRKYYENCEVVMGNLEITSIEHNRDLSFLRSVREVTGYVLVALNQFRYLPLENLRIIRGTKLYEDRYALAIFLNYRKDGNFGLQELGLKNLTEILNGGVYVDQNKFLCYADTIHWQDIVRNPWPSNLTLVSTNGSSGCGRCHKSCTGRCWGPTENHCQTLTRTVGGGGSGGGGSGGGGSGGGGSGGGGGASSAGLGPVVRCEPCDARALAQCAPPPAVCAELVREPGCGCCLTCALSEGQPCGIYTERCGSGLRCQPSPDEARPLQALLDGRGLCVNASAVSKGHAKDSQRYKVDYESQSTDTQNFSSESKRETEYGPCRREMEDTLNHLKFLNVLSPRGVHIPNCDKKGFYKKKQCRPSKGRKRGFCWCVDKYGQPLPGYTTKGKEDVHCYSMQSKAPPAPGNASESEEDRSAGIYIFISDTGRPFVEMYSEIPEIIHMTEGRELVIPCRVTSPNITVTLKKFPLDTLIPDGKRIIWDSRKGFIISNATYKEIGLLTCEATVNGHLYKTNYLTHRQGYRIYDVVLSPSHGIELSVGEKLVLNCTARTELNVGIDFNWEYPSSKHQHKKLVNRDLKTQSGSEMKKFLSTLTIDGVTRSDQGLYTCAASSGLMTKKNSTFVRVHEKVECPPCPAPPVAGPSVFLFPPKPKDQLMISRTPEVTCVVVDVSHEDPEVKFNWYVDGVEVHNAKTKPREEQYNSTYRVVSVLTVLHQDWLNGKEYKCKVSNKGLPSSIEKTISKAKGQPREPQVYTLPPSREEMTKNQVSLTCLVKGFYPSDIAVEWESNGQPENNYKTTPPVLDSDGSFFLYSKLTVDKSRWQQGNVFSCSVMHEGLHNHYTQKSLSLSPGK
Sequence of IGFBP3-Fc-ErbB4 (Fc fusion) (chain): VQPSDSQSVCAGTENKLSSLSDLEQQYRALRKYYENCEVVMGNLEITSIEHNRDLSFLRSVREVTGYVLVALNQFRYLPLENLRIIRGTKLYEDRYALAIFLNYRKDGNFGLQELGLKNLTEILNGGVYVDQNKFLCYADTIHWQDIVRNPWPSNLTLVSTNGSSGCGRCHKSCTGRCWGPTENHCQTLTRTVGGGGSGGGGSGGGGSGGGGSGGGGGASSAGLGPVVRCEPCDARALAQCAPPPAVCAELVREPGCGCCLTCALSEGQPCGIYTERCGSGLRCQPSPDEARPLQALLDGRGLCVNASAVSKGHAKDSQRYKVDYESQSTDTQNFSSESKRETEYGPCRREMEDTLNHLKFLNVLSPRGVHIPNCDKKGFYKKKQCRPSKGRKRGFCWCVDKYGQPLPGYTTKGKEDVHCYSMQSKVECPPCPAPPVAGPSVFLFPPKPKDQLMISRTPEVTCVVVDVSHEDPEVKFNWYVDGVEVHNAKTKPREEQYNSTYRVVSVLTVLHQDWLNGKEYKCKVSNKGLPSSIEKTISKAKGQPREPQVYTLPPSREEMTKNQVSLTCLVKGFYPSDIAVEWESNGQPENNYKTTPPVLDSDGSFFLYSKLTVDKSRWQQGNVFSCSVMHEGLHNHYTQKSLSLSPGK
Sequence of IGFBP3-Fc (Fc fusion) (chain): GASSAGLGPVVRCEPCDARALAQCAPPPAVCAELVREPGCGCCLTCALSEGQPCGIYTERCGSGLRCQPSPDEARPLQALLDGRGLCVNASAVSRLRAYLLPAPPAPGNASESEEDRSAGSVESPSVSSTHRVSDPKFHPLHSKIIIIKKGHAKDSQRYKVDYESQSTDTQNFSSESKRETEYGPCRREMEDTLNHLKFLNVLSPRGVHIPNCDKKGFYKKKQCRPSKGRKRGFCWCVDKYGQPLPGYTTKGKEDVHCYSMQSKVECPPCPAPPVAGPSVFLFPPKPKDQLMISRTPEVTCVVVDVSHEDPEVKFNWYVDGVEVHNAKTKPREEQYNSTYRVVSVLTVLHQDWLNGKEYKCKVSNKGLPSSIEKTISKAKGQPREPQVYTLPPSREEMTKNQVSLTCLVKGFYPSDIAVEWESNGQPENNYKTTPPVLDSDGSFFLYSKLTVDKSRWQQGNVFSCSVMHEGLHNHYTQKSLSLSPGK
Sequence of IGFBP3-Fc-VEGF (Fc fusion) (chain): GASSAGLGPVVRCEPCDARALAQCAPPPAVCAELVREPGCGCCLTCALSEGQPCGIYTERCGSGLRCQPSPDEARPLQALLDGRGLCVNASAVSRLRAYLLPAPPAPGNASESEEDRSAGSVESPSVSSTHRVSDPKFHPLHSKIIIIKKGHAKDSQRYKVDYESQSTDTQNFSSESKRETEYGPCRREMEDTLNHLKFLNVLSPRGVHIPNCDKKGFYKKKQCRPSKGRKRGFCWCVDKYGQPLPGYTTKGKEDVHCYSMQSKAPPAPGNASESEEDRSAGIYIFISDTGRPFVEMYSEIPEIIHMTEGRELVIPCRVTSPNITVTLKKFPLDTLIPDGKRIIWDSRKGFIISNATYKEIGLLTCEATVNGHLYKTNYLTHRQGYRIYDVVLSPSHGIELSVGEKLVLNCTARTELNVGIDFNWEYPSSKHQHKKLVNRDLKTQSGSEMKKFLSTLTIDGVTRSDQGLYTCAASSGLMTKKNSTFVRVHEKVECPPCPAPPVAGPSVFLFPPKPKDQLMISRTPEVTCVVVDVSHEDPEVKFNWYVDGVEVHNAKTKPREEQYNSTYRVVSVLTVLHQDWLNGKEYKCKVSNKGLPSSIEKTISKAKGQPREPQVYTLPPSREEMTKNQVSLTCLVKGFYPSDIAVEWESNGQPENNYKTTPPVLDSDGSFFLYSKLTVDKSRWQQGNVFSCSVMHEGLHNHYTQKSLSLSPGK

Substance | pKd (nrgECD) | pKd (nrgEGF) | IC50 in inhibiting neuregulin-induced proliferation (nrgbx)
IGFBP3-Fc (Fc fusion) | 8.28 | – | –
chimera erbB4-A (Fc fusion) | – | – | 14 nM

More lines, in order of rising pKd (nrgECD), values ahead:

pKd (nrgECD) | pKd (nrgEGF) | IC50 in inhibiting neuregulin-induced proliferation (nrgbx) | Substance
9.74 | – | – | IGFBP3-Fc-VEGF (Fc fusion)
11.40 | 8.22 | – | IGFBP3-Fc-ErbB4 (Fc fusion)
12.96 | 7.96 | – | IGFBP3-Fc-VEGF-ErbB4 (Fc fusion)
